The values that follow come from US20250051427A1, “METHODS OF USING AN ANTI-AMYLOID BETA PROTOFIBRIL ANTIBODY AND ANTI-TAU ANTIBODY” (published 2025).

For assay [1], the target named is T1, MTBR-tau (microtubule binding region tau) in CSF (Homo sapiens). The experiment in a line: E2814-bound and free MTBR-tau in CSF after a single E2814 infusion of 30 mg/kg.
Assay [2] deals with T1, MTBR-tau (microtubule binding region …). The assay is described as follows: E2814-bound and free MTBR-tau in CSF after a single E2814 infusion of 3 mg/kg.
Assay [3] shares this target. The experiment in a line: E2814-bound and free MTBR-tau in CSF after a single E2814 infusion of 10 mg/kg.

B1: E2814 (antibody, V domains shown)
VH: EVQLLESGGGLVQPGGSLRLSCAASGYTFTTYWITWVRQAPGKGLEWVSDIYPGSSISNYNEKFKSRFTISVDNSKNTLYLQMNSLRAEDTAVYYCAREDGYDAWFAYWGQGTLVTVSS
VL: DIQMTQSPSSLSASVGDRVTITCRSSQSILHSNGNTYLEWYQQKPGKAPKLLISKVSNRFSGVPSRFSGSGSGTDFTLTISSLQPEDFATYYCFQGSHVPFTFGQGTKLEIKR
B1: the results for the “target engagement (TE), fraction (%) of bound MTBR-tau relative to total MTBR-tau” value in assay [1], in assay [2] and in assay [3] were around 60%, around 26% and around 45%, respectively.
